Measurements as given in patent publication US20220041691A1, “METHODS FOR DIAGNOSING OR TREATING POST-TRAUMATIC STRESS DISORDER, AND COMPOSITIONS THEREFOR” (Centre for Addiction and Mental Health, priority 2018, published 2022).
Read-outs that look alike come from different tables or passages of the source. Ends that are not written are not given here.

T1: GR (Mus musculus, UniProt P06537)
T1 construct: from tissue; host or cells: mouse brain
T1 sequence (P06537 1-792): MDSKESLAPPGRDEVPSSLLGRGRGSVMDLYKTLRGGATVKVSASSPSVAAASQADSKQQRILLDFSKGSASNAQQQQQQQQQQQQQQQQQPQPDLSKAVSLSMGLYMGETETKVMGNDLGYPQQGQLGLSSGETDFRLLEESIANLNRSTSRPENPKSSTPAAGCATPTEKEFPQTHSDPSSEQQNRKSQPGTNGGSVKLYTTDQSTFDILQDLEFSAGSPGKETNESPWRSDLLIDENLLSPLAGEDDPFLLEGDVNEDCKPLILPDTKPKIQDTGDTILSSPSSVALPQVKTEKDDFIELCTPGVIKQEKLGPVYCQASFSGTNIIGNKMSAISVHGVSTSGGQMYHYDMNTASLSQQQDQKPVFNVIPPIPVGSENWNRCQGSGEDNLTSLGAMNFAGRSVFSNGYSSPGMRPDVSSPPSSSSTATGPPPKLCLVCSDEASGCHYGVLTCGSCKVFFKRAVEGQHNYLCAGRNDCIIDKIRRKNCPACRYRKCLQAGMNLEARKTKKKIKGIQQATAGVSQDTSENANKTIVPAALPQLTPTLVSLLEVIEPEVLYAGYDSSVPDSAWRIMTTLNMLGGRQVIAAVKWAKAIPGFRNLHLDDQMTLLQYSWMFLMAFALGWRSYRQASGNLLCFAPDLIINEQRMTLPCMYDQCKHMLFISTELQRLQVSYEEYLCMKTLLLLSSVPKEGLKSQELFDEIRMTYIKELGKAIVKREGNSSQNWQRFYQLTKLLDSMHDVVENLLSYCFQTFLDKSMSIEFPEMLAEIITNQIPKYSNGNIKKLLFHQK

T2: FKBP51-TPR (Homo sapiens, UniProt Q13451)
T2 construct: made in house; host or cells: bacteria
T2 sequence (Q13451 258-457): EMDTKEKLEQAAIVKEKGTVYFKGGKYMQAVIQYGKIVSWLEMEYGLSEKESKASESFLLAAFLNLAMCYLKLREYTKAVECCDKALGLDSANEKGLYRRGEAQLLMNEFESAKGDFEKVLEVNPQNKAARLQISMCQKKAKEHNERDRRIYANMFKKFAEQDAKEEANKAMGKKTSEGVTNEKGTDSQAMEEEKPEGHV

T3: GFP-FKBP51 (Homo sapiens, UniProt Q13451)
T3 sequence (Q13451 1-457): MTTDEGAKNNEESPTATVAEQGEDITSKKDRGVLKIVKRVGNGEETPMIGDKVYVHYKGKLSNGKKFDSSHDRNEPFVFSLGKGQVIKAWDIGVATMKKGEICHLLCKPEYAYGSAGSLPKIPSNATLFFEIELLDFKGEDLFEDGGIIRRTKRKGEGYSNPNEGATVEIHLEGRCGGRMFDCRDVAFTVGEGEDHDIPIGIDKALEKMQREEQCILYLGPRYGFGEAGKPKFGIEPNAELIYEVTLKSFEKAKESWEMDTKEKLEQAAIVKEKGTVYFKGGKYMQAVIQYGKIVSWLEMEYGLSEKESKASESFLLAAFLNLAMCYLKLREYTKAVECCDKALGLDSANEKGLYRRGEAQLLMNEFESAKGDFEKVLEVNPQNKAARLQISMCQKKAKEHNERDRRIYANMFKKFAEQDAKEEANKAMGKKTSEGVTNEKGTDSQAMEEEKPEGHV


Key:
GR = molecular target: T1, GR; test: GST pull-down of GR by GST-FKBP51 fragments in mouse brain tissue; format: binding
From the text: The present inventors identified that if increased GR-FKBP51 complex levels are part of the pathophysiology of PTSD, then disrupting the complex may rescue behaviors related to PTSD. To develop an agent (in this example, a peptide-based agent) capable of blocking the GR-FKBP51 interaction, experiments were first performed to identify the regions of the GR that are important to bind FKBP51 (and vice versa). Initially, GST-fusion proteins were used encoding the amino-terminus (NT) of GR (GRNT) and the carboxyl-terminus (CT) of GR (GRCT) for affinity purification. […] Extending this strategy, GRNT fragments were examined (see FIG. 8, where the 6 tested GRNT fragments, NT-1, NT-2, NT-3, NT-4, NT-5, and NT-6 are shown). […] Similarly, it was determined that the TPR (tetratricopeptide repeat) domains of FKBP51 bind GR (FIG. 2D). In these studies, GST-fusion proteins of 3 different portions of the FKBP51 protein were prepared (FK1, FK2, and TPR, see FIG. 9) and tested. The TPR fragment was identified as containing the relevant interaction region.
GST-fusion proteins encoding truncated GR fragments were amplified by PCR from full-length human cDNA clones. All constructs were sequenced to confirm the absence of PCR-generated errors. […]

FKBP51-TPR = molecular target: T2, FKBP51-TPR; test: Surface plasmon resonance, binding of FKBP51 TPR domain to GR and its phosphorylation mutants; details: Flag-tagged GR immobilized on sensor chip, 25° C.
Method: The binding of FKBP51 TPR domain to GR and its phosphorylation mutants was determined by surface plasmon resonance using a Reichert SR7500DC instrument. Experiments were conducted at 25° C. with 2000 RU HEK293 expressed FLAG-tagged GR bound onto a FLAG antibody-coated Dextran 50,000 Da chip. Running buffer (PBS, pH 7.4 with 0.005% Tween 20) was used with a flow rate of 25 μl/min. With association time of 300s and dissociation of 240s, binding signals were determined by injecting various concentrations of the GST-FKBP51_TPR.

GFP-FKBP51 = molecular target: T3, GFP-FKBP51; test: Co-immunoprecipitation of Flag-GR (WT, S211A, S211E) with GFP-FKBP51 in transfected HEK293T cells; format: cell-based; details: HEK293T cells transfected with GR variant and GFP-FKBP51, n=3
From the text: Thus, it was investigated whether the increased GR-FKBP51 seen in fear-conditioned mice and PTSD patients was associated with altered GR S211 phosphorylation. […] Similar results were also seen in samples from PTSD patients (FIG. 5C n=12, p<0.05, t-test). To probe further into how S211 phosphorylation and GR-FKBP51 are related, two GR mutants were generated (see SEQ ID NOs: 10 (S211A) and 11 (S211E) of FIG. 10). S211A is a non-phosphorylated GR mutant and S211E is phosphomimetic GR mutant.
HEK293T cells were maintained as a monolayer culture at 37° C. in Dulbecco's Modified Eagle Medium (DMEM) (Invitrogen) supplemented with 10% fetal bovine serum (Gibco). Cells were grown to 90% confluence before being transiently transfected with DNA constructs by X-treme GENE 9 transfection reagent (Roche), following the manufacturer's instructions. About 24-48 hrs after transfection, cells were used for experiments.
Co-immunoprecipitation and Western blot analyses were performed as previously described.^24, 25, 26 For co-immunoprecipitation, 500˜1000 μg solubilized protein was extracted from whole mouse brain and incubated with primary antibody or control IgG (2˜4 μg) for 4 hrs at 4° C., followed by the addition of 25 μl protein A/G plus agarose (Santa Cruz Biotechnology) for 12 hrs. Pellets were washed, boiled for 5 min in SDS sample buffer and subjected to SDS-PAGE. 50˜100 μg of total protein extract was used as control in each experiment. After transfer of proteins into nitrocellulose, membranes were Western blotted with the primary antibodies. The intensity of protein level was quantified by densitometry (software: ImageLab, Bio-Rad).
Mutants of Flag-GR and GST-GR-NT were created with the QuickChange site-directed mutagenesis kit (Stratagene, La Jolla, Calif.). All mutants were confirmed by DNA sequencing.

[1] = read-out: KD for binding FKBP51 (SPR)

Row | pull-down of GR by GST-FKBP51 fragment, Western blot (GR) | Kd (FKBP51-TPR; [1]) | GR-FKBP51 complex level (Flag-GR co-immunoprecipitated with GFP-FKBP51) compared to wild-type GR (GFP-FKBP51) | GR-FKBP51 complex level (Flag-GR co-immunoprecipitated with GFP-FKBP51) compared to wild-type GR (GFP-FKBP51; listed as S211A-GR) | Kd (FKBP51-TPR; figure legend values, read-out: KD for binding FKBP51-TPR (SPR)) | Molecule
1 | can “pull-down” |  |  |  |  | GST-TPR3: GST-fusion protein of FKBP51 TPR fragment 3 (GEAQLLMNEFESAKGDFEKVLEVNPQNKAARLQISMCQKKAKEHNERDRR; also: GST fusion protein)
2 | can “pull-down” |  |  |  |  | GST-TPR: GST-fusion protein of FKBP51 tetratricopeptide repeat (TPR) domain (protein, left off: a dimerising Fc or GST, GST-fusion protein of FKBP51 tetratricopeptide repeat (TPR) domain) EMDTKEKLEQAAIVKEKGTVYFKGGKYMQAVIQYGKIVSWLEMEYGLSEKESKASESFLLAAFLNLAMCYLKLREYTKAVECCDKALGLDSANEKGLYRRGEAQLLMNEFESAKGDFEKVLEVNPQNKAARLQISMCQKKAKEHNERDRRIYANMFKKFAEQDAKEEANKAMGKKTSEGVTNEKGTDSQAMEEEKPEGHV
3 |  | 0.412 µM | significantly higher | higher levels of the GR-FKBP51 complex |  | S211A GR: non-phosphorylated GR mutant, Flag-tagged (protein, Flag tag; Amino Acid Sequence of S211A GR Mutant (non-phosphorylated GR mutant), non-phosphorylated GR mutant, Flag-tagged) MDSKESLTPGREENPSSVLAQERGDVMDFYKTLRGGATVKVSASSPSLAVASQSDSKQRRLLVDFPKGSVSNAQQPDLSKAVSLSMGLYMGETETKVMGNDLGFPQQGQISLSSGETDLKLLEESIANLNRSTSVPENPKSSASTAVSAAPTEKEFPKTHSDVSSEQQHLKGQTGTNGGNVKLYTTDQSTFDILQDLEFSSGSPGKETNEAPWRSDLLIDENCLLSPLAGEDDSFLLEGNSNEDCKPLILPDTKPKIKDNGDLVLSSPSNVTLPQVKTEKEDFIELCTPGVIKQEKLGTVYCQASFPGANIIGNKMSAISVHGVSTSGGQMYHYDMNTASLSQQQDQKPIFNVIPPIPVGSENWNRCQGSGDDNLTSLGTLNFPGRTVFSNGYSSPSMRPDVSSPPSSSSTATTGPPPKLCLVCSDEASGCHYGVLTCGSCKVFFKRAVEGQHNYLCAGRNDCIIDKIRRKNCPACRYRKCLQAGMNLEARKTKKKIKGIQQATTGVSQETSENPGNKTIVPATLPQLTPTLVSLLEVIEPEVLYAGYDSSVPDSTWRIMTTLNMLGGRQVIAAVKWAKAIPGFRNLHLDDQMTLLQYSWMFLMAFALGWRSYRQSSANLLCFAPDLIINEQRMTLPCMYDQCKHMLYVSSELHRLQVSYEEYLCMKTLLLLSSVPKDGLKSQELFDEIRMTYIKELGKAIVKREGNSSQNWQRFYQLTKLLDSMHEVVENLLNYCFQTFLDKTMSIEFPEMLAEIITNQIPKYSNGNIKKLLFHQK
4 |  | 3.9 ± 0.01 µM | no significant difference |  | 3.9 µM | S211E GR: phosphomimetic GR mutant, Flag-tagged (protein, Flag tag; Amino Acid Sequence of S211E GR Mutant (phosphomimetic GR mutant), phosphomimetic GR mutant, Flag-tagged) MDSKESLTPGREENPSSVLAQERGDVMDFYKTLRGGATVKVSASSPSLAVASQSDSKQRRLLVDFPKGSVSNAQQPDLSKAVSLSMGLYMGETETKVMGNDLGFPQQGQISLSSGETDLKLLEESIANLNRSTSVPENPKSSASTAVSAAPTEKEFPKTHSDVSSEQQHLKGQTGTNGGNVKLYTTDQSTFDILQDLEFSSGSPGKETNEEPWRSDLLIDENCLLSPLAGEDDSFLLEGNSNEDCKPLILPDTKPKIKDNGDLVLSSPSNVTLPQVKTEKEDFIELCTPGVIKQEKLGTVYCQASFPGANIIGNKMSAISVHGVSTSGGQMYHYDMNTASLSQQQDQKPIFNVIPPIPVGSENWNRCQGSGDDNLTSLGTLNFPGRTVFSNGYSSPSMRPDVSSPPSSSSTATTGPPPKLCLVCSDEASGCHYGVLTCGSCKVFFKRAVEGQHNYLCAGRNDCIIDKIRRKNCPACRYRKCLQAGMNLEARKTKKKIKGIQQATTGVSQETSENPGNKTIVPATLPQLTPTLVSLLEVIEPEVLYAGYDSSVPDSTWRIMTTLNMLGGRQVIAAVKWAKAIPGFRNLHLDDQMTLLQYSWMFLMAFALGWRSYRQSSANLLCFAPDLIINEQRMTLPCMYDQCKHMLYVSSELHRLQVSYEEYLCMKTLLLLSSVPKDGLKSQELFDEIRMTYIKELGKAIVKREGNSSQNWQRFYQLTKLLDSMHEVVENLLNYCFQTFLDKTMSIEFPEMLAEIITNQIPKYSNGNIKKLLFHQK
